In patent US20210147507A1, “METHODS TO AUGMENT OR ALTER SIGNAL TRANSDUCTION” (Bellicum Pharmaceuticals, Inc., priority 2017, published 2021):
Numbering of substitutions follows the chain as printed. Numbers in names are those of the source.

B1: F404S (protein)
chain: GFGDVGALESLRGNADLAYILSMEPCGHCLIINNVNFCRESGLRTRTGSNIDCEKLRRRFSSLHFMVEVKGDLTAKKMVLALLELARQDHGALDCCVVVILSHGCQASHLQFPGAVYGTDGCPVSVEKIVNIFNGTSCPSLGGKPKLFFIQACGGEQKDHGFEVASTSPEDESPGSNPEPDATPFQEGLRTFDQLDAISSLPTPSDIFVSYSTFPGFVSWRDPKSGSWYVETLDDIFEQWAHSEDLQSLLLRVANAVSVKGIYKQMPGCSNFLRKKLFFKTSASRA
B2: F406L (protein)
chain: B1 chain with S270F, F272L
B3: D315A-D330A (protein)
chain: B1 chain with D181A, D196A, S270F
B4: D330A-Y153A (protein)
chain: B1 chain with Y19A, D196A, S270F
B5: D330A-Y153F (protein)
chain: B1 chain with Y19F, D196A, S270F
B6: D330A-T317E (protein)
chain: B1 chain with T183E, D196A, S270F
B7: 402GCFNF^406YCSTL (Casp-2) (protein, UniProt P55211 1-416, looked up, variant G402Y F404S N405T F406L)
chain: MDEADRRLLRRCRLRLVEELQVDQLWDALLSRELFRPHMIEDIQRAGSGSRRDQARQLIIDLETRGSQALPLFISCLEDTGQDMLASFLRTNRQAAKLSKPTLENLTPVVLRPEIRKPEVLRPETPRPVDIGSGGFGDVGALESLRGNADLAYILSMEPCGHCLIINNVNFCRESGLRTRTGSNIDCEKLRRRFSSLHFMVEVKGDLTAKKMVLALLELAQQDHGALDCCVVVILSHGCQASHLQFPGAVYGTDGCPVSVEKIVNIFNGTSCPSLGGKPKLFFIQACGGEQKDHGFEVASTSPEDESPGSNPEPDATPFQEGLRTFDQLDAISSLPTPSDIFVSYSTFPGFVSWRDPKSGSWYVETLDDIFEQWAHSEDLQSLLLRVANAVSVKGIYKQMPYCSTLLRKKLFFKTS
B8: 402GCFNF^406CIVSM (Casp-3) (protein, UniProt P55211 1-416, looked up, variant G402C C403I F404V N405S F406M)
chain: B7 chain with Y402C, C403I, S404V, T405S, L406M
B9: 402GCFNF^406QPTFT (Casp-8) (protein, UniProt P55211 1-416, looked up, variant G402Q C403P F404T N405F F406T)
chain: B7 chain with Y402Q, C403P, S404T, T405F, L406T
B10: G402A (protein)
chain: B1 chain with G268A, S270F
B11: G402I (protein)
chain: B1 chain with G268I, S270F
B12: G402Q (protein)
chain: B1 chain with G268Q, S270F
B13: G402Y (protein)
chain: B1 chain with G268Y, S270F
B14: C403P (protein)
chain: B1 chain with C269P, S270F
B15: S144A (protein)
chain: B1 chain with S10A, S270F
B16: S144D (protein)
chain: B1 chain with S10D, S270F
B17: S196D (protein)
chain: B1 chain with S62D, S270F
B18: T317S (protein)
chain: B1 chain with T183S, S270F

Tests used:
[1] = target: wt FRB (K2095 T2098 W2101) (Homo sapiens, UniProt P42345+P62942); conditions: cited from earlier work
Sequence of wt FRB (K2095 T2098 W2101) (P42345 2012-2144 limits assumed): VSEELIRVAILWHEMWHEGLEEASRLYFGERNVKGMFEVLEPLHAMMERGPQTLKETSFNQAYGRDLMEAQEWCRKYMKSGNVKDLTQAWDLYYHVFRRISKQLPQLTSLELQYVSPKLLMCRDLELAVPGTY
Sequence of wt FRB (K2095 T2098 W2101) (P62942 2-108 limits assumed): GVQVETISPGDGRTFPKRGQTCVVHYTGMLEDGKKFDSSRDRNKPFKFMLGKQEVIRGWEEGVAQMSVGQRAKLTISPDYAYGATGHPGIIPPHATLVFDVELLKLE

[2] = target: FRB-KTF (Homo sapiens, UniProt P42345+P62942, W2101F); conditions: cited from earlier work
Sequence of FRB-KTF (P42345 2012-2144 W2101F): as the sequence (P42345 2012-2144 limits assumed) above, with W90F counted along it
Sequence of FRB-KTF (P62942 2-108): as the sequence (P62942 2-108 limits assumed) above

[3] = target: FRB-PLF (Homo sapiens, UniProt P42345+P62942, K2095P/T2098L/W2101F); conditions: cited from earlier work
Sequence of FRB-PLF (P42345 2012-2144 K2095P/T2098L/W2101F limits assumed): as the sequence (P42345 2012-2144 limits assumed) above, with K84P, T87L, W90F counted along it
Sequence of FRB-PLF (P62942 2-108 limits assumed): as the sequence (P62942 2-108 limits assumed) above

[4] = test system: chimeric Caspase-9 polypeptide; test: Caspase-9 mutant classes and basal activity (Table 5); format: cell-based; conditions: Caspase-9 mutant class; for Basal Activity: basal (ligand-independent) signaling compared with unmodified chimeric Caspase-9
Sequence of chimeric Caspase-9 polypeptide (P62942 2-108 F37V limits assumed): as the sequence (P62942 2-108 limits assumed) above, with F36V counted along it

| Molecule | Catalytic activity (class 'Catalytically dead') [4] | also measured |
| --- | --- | --- |
| S-Butanesulfonamidorap [AP23050] |  | EC50 [1]: ~2.7 nM; EC50 [2]: > 200 nM |
| CO[C@@H]1C[C@H](C[C@@H](C)[C@@H]2CC(=O)[C@H](C)/C=C(\C)[C@@H](O)[C@@H](OC)C(=O)[C@H](C)C[C@H](C)/C=C/C=C/C=C(\C)[C@H](OC(C)C)C[C@@H]3CC[C@@H](C)[C@@](O)(O3)C(=O)C(=O)N3CCCC[C@H]3C(=O)O2)CC[C@H]1O [R-Isopropoxyrapamycin] |  | EC50 [1]: ~300 nM; EC50 [3]: ~8.5 nM |
| B1 | dead |  |
| B2 | dead |  |
| B3 | dead |  |
| B4 | dead |  |
| B5 | dead |  |
| B6 | dead |  |
| B7 | dead |  |
| B8 | dead |  |
| B9 | dead |  |
| B10 | dead |  |
| B11 | dead |  |
| B12 | dead |  |
| B13 | dead |  |
| B14 | dead |  |
| B15 |  | Basal Activity [4]: Decreased |
| B16 |  | Basal Activity [4]: Decreased |
| B17 |  | Basal Activity [4]: Decreased |
| B18 |  | Basal Activity [4]: Decreased |
